Experimental data: patent US20250043302A1, “MUTATED HYDROXYPHENYLPYRUVATE DIOXYGENASE POLYPEPTIDE, AND CODING GENE AND USE THEREOF” (BEIJING DABEINONG BIOTECHNOLOGY CO., LTD., priority 2021, published 2025)

Legend:
Assay type in all cases: in vivo
[1] = tested on: Arabidopsis thaliana T1 plants; assay: Mesotrione tolerance of transgenic Arabidopsis thaliana T1 plants (spray, bleached leaf area grade, damage score); set-up: Scores: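 damage score 0-100 computed as Σ(N×S)/(T×M)×100 over grades 0-3 with higher meaning more damage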; conditions: Table 12; for Classification and statistics of the grade of pesticide damage Grade 0: number of plants at grade 0; for Classification and statistics of the grade of pesticide damage Grade 1: number of plants at grade 1; for Classification and statistics of the grade of pesticide damage Grade 2: number of plants at grade 2; for Classification and statistics of the grade of pesticide damage Grade 3: number of plants at grade 3; for Scores: pesticide damage score
Procedure, shortened: (§1)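 T1 transformants selected by glufosinate; 18-day-old plants, with empty-vector and wild-type controls, sprayed with topramezone (25–200 g ai/ha), isoxaflutole (35–280 g ai/ha) or mesotrione (52.5–420 g ai/ha), water as 0×. Bleached leaf area fraction scored at 7 DAT as grades 0–3.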

[2] = tested on: Arabidopsis thaliana T1 plants; assay: Topramezone tolerance of transgenic Arabidopsis thaliana T1 plants (spray, bleached leaf area grade, damage score); conditions: Table 10; for Classification and statistics of the grade of pesticide damage Grade 0: number of plants at grade 0; for Classification and statistics of the grade of pesticide damage Grade 1: number of plants at grade 1; for Classification and statistics of the grade of pesticide damage Grade 2: number of plants at grade 2; for Classification and statistics of the grade of pesticide damage Grade 3: number of plants at grade 3; for Scores: pesticide damage score
Procedure, shortened: as §1

[3] = tested on: Arabidopsis thaliana T1 plants; assay: Isoxaflutole tolerance of transgenic Arabidopsis thaliana T1 plants (spray, bleached leaf area grade, damage score); conditions: Table 11; for Classification and statistics of the grade of pesticide damage Grade 0: number of plants at grade 0; for Classification and statistics of the grade of pesticide damage Grade 1: number of plants at grade 1; for Classification and statistics of the grade of pesticide damage Grade 2: number of plants at grade 2; for Classification and statistics of the grade of pesticide damage Grade 3: number of plants at grade 3; for Scores: pesticide damage score;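 on Scores: Weighted damage index from 0 to 100 where higher means more damage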
Procedure, shortened: as §1

Molecule	Resistance evaluation ([1]; mesotrione 210 g ai/ha (2×))	Classification and statistics of the grade of pesticide damage Grade 0 ([1]; mesotrione 210 g ai/ha (2×))	Classification and statistics of the grade of pesticide damage Grade 1 ([1]; mesotrione 210 g ai/ha (2×))	Classification and statistics of the grade of pesticide damage Grade 2 ([1]; mesotrione 210 g ai/ha (2×))	Classification and statistics of the grade of pesticide damage Grade 3 ([1]; mesotrione 210 g ai/ha (2×))	Scores ([1]; mesotrione 210 g ai/ha (2×))	Resistance evaluation ([1]; mesotrione 420 g ai/ha (4×))	Classification and statistics of the grade of pesticide damage Grade 0 ([1]; mesotrione 420 g ai/ha (4×))	Classification and statistics of the grade of pesticide damage Grade 1 ([1]; mesotrione 420 g ai/ha (4×))	Classification and statistics of the grade of pesticide damage Grade 2 ([1]; mesotrione 420 g ai/ha (4×))	Classification and statistics of the grade of pesticide damage Grade 3 ([1]; mesotrione 420 g ai/ha (4×))	Scores ([1]; mesotrione 420 g ai/ha (4×))	Resistance evaluation ([2]; topramezone 100 g ai/ha (4×))	Classification and statistics of the grade of pesticide damage Grade 0 ([2]; topramezone 100 g ai/ha (4×))	Classification and statistics of the grade of pesticide damage Grade 1 ([2]; topramezone 100 g ai/ha (4×))	Classification and statistics of the grade of pesticide damage Grade 2 ([2]; topramezone 100 g ai/ha (4×))	Classification and statistics of the grade of pesticide damage Grade 3 ([2]; topramezone 100 g ai/ha (4×))	Scores ([2]; topramezone 100 g ai/ha (4×))	Resistance evaluation ([2]; topramezone 200 g ai/ha (8×))	Classification and statistics of the grade of pesticide damage Grade 0 ([2]; topramezone 200 g ai/ha (8×))	other results
HPPDm-8-02: nucleotide sequence encoding AsHPPDm-A111T-K351N-F372A-F383W with mutated C-terminal; vector DBN11789 (nucleic acid, mutated C-terminus; HPPDm-8-02 Nucleotide Sequence, vector DBN11789) DNA: ATGCCACCTACTCCAGCTACAGCTACTGGTGCTGCTGCTGCTGCCGTTACTCCTGAGCACGCTGCCAGGTCATTCCCCAGGGTGGTTCGCGTGAACCCCAGATCTGATAGGTTCCCAGTTCTGAGCTTCCACCATGTTGAGCTGTGGTGCGCTGATGCTGCTTCTGCTGCTGGCAGGTTCTCTTTCGCTCTTGGTGCTCCACTCGCTGCTAGATCTGATCTGTCTACAGGAAATAGCGCTCATGCCTCACTCCTGCTTCGCTCAGGTGCTTTGGCCTTCCTCTTCACCGCTCCATATGCTCCCCCACCTCAGGAGGCTGCTACTGCTGCTACTACAGCCTCCATTCCAAGCTTCTCAGCTGATGCCGCTAGAACCTTCGCTGCTGCTCATGGACTTGCCGTGAGGTCTGTTGGTGTTCGCGTGGCTGATGCTGCTGAGGCTTTCAGAGTTTCCGTTGCCGGCGGAGCTAGGCCAGCTTTCGCTCCTGCTGATTTGGGACATGGTTTCGGCCTGGCTGAGGTTGAGCTTTACGGTGACGTGGTTCTCCGCTTCGTGTCTTACCCAGATGAGACTGACCTGCCTTTCCTTCCCGGCTTCGAGAGAGTTTCCTCTCCTGGTGCCGTGGATTACGGCCTGACAAGGTTCGACCACGTGGTTGGAAACGTTCCCGAGATGGCTCCAGTGATCGATTACATGAAGGGCTTCCTTGGATTCCATGAGTTCGCCGAGTTCACTGCTGAGGACGTGGGAACCACTGAGTCCGGTTTGAACTCTGTGGTTCTCGCCAACAATTCTGAGGCTGTTTTGCTCCCTCTGAATGAGCCTGTGCATGGAACCAAGAGGAGAAGCCAGATTCAAACTTACCTGGAGTACCACGGTGGCCCTGGAGTTCAGCATATCGCCCTTGCTTCTAATGATGTGTTGCGCACACTCAGAGAGATGCGCGCCAGAACCCCCATGGGAGGTTTCGAGTTCATGGCCCCACCACAGGCTAAGTACTACGAGGGCGTTAGAAGGATTGCTGGAGACGTGTTGAGCGAGGAGCAGATCAATGAGTGCCAAGAGCTGGGTGTTCTTGTGGATAGGGATGACCAGGGCGTTCTGCTTCAAATTGCCACTAAGCCAGTGGGCGACCGCCCTACATTCTGGCTTGAGATGATTCAAAGAATCGGCTGCATGGAGAAGGATGAGGTTGGACAGGAGTACCAAAAGGGCGGATGCGGTGGCTTCGGAAAGGGTAACTTCAGCGAGTTGTTCAAGTCAATCGAGGAGTATGAGAAGACCTTGGAGGCCAAGCAGCTCGTGGGTTGA	Highly resistant	16	0	0	0	0	Highly resistant	16	0	0	0	0	Highly resistant	16	0	0	0	0	Highly resistant	16	Classification and statistics of the grade of pesticide damage Grade 1 ([2]; topramezone 200 g ai/ha (8×)): 0; Classification and statistics of the grade of pesticide damage Grade 2 ([2]; topramezone 200 g ai/ha (8×)): 0; Classification and statistics of the grade of pesticide damage Grade 3 ([2]; topramezone 200 g ai/ha (8×)): 0; Scores ([2]; topramezone 200 g ai/ha (8×)): 0; Resistance evaluation ([3]; isoxaflutole 140 g ai/ha (2×)): Highly resistant; Classification and statistics of the grade of pesticide damage Grade 0 ([3]; isoxaflutole 140 g ai/ha (2×)): 16; Classification and statistics of the grade of pesticide damage Grade 1 ([3]; isoxaflutole 140 g ai/ha (2×)): 0; Classification and statistics of the grade of pesticide damage Grade 2 ([3]; isoxaflutole 140 g ai/ha (2×)): 0; Classification and statistics of the grade of pesticide damage Grade 3 ([3]; isoxaflutole 140 g ai/ha (2×)): 0; Scores ([3]; isoxaflutole 140 g ai/ha (2×)): 0; Resistance evaluation ([3]; isoxaflutole 280 g ai/ha (4×)): Highly resistant; Classification and statistics of the grade of pesticide damage Grade 0 ([3]; isoxaflutole 280 g ai/ha (4×)): 16; Classification and statistics of the grade of pesticide damage Grade 1 ([3]; isoxaflutole 280 g ai/ha (4×)): 0; Classification and statistics of the grade of pesticide damage Grade 2 ([3]; isoxaflutole 280 g ai/ha (4×)): 0; Classification and statistics of the grade of pesticide damage Grade 3 ([3]; isoxaflutole 280 g ai/ha (4×)): 0; Scores ([3]; isoxaflutole 280 g ai/ha (4×)): 0
HPPDm-9-02: nucleotide sequence encoding AsHPPDm-A106G-K351N-F372A-F383W with mutated C-terminal; vector DBN11790 (nucleic acid, mutated C-terminus; HPPDm-9-02 Nucleotide Sequence, vector DBN11790) DNA: ATGCCACCTACTCCAGCTACAGCTACTGGTGCTGCTGCTGCTGCCGTTACTCCTGAGCACGCTGCCAGGTCATTCCCCAGGGTGGTTCGCGTGAACCCCAGATCTGATAGGTTCCCAGTTCTGAGCTTCCACCATGTTGAGCTGTGGTGCGCTGATGCTGCTTCTGCTGCTGGCAGGTTCTCTTTCGCTCTTGGTGCTCCACTCGCTGCTAGATCTGATCTGTCTACAGGAAATAGCGCTCATGCCTCACTCCTGCTTCGCTCAGGTGCTTTGGCCTTCCTCTTCACCGCTCCATATGCTCCCCCACCTCAGGAGGGTGCTACTGCTGCTGCTACAGCCTCCATTCCAAGCTTCTCAGCTGATGCCGCTAGAACCTTCGCTGCTGCTCATGGACTTGCCGTGAGGTCTGTTGGTGTTCGCGTGGCTGATGCTGCTGAGGCTTTCAGAGTTTCCGTTGCCGGCGGAGCTAGGCCAGCTTTCGCTCCTGCTGATTTGGGACATGGTTTCGGCCTGGCTGAGGTTGAGCTTTACGGTGACGTGGTTCTCCGCTTCGTGTCTTACCCAGATGAGACTGACCTGCCTTTCCTTCCCGGCTTCGAGAGAGTTTCCTCTCCTGGTGCCGTGGATTACGGCCTGACAAGGTTCGACCACGTGGTTGGAAACGTTCCCGAGATGGCTCCAGTGATCGATTACATGAAGGGCTTCCTTGGATTCCATGAGTTCGCCGAGTTCACTGCTGAGGACGTGGGAACCACTGAGTCCGGTTTGAACTCTGTGGTTCTCGCCAACAATTCTGAGGCTGTTTTGCTCCCTCTGAATGAGCCTGTGCATGGAACCAAGAGGAGAAGCCAGATTCAAACTTACCTGGAGTACCACGGTGGCCCTGGAGTTCAGCATATCGCCCTTGCTTCTAATGATGTGTTGCGCACACTCAGAGAGATGCGCGCCAGAACCCCCATGGGAGGTTTCGAGTTCATGGCCCCACCACAGGCTAAGTACTACGAGGGCGTTAGAAGGATTGCTGGAGACGTGTTGAGCGAGGAGCAGATCAATGAGTGCCAAGAGCTGGGTGTTCTTGTGGATAGGGATGACCAGGGCGTTCTGCTTCAAATTGCCACTAAGCCAGTGGGCGACCGCCCTACATTCTGGCTTGAGATGATTCAAAGAATCGGCTGCATGGAGAAGGATGAGGTTGGACAGGAGTACCAAAAGGGCGGATGCGGTGGCTTCGGAAAGGGTAACTTCAGCGAGTTGTTCAAGTCAATCGAGGAGTATGAGAAGACCTTGGAGGCCAAGCAGCTCGTGGGTTGA	Highly resistant	16	0	0	0	0	Highly resistant	16	0	0	0	0	Highly resistant	16	0	0	0	0	Highly resistant	16	Classification and statistics of the grade of pesticide damage Grade 1 ([2]; topramezone 200 g ai/ha (8×)): 0; Classification and statistics of the grade of pesticide damage Grade 2 ([2]; topramezone 200 g ai/ha (8×)): 0; Classification and statistics of the grade of pesticide damage Grade 3 ([2]; topramezone 200 g ai/ha (8×)): 0; Scores ([2]; topramezone 200 g ai/ha (8×)): 0; Resistance evaluation ([3]; isoxaflutole 140 g ai/ha (2×)): Highly resistant; Classification and statistics of the grade of pesticide damage Grade 0 ([3]; isoxaflutole 140 g ai/ha (2×)): 16; Classification and statistics of the grade of pesticide damage Grade 1 ([3]; isoxaflutole 140 g ai/ha (2×)): 0; Classification and statistics of the grade of pesticide damage Grade 2 ([3]; isoxaflutole 140 g ai/ha (2×)): 0; Classification and statistics of the grade of pesticide damage Grade 3 ([3]; isoxaflutole 140 g ai/ha (2×)): 0; Scores ([3]; isoxaflutole 140 g ai/ha (2×)): 0; Resistance evaluation ([3]; isoxaflutole 280 g ai/ha (4×)): Highly resistant; Classification and statistics of the grade of pesticide damage Grade 0 ([3]; isoxaflutole 280 g ai/ha (4×)): 16; Classification and statistics of the grade of pesticide damage Grade 1 ([3]; isoxaflutole 280 g ai/ha (4×)): 0; Classification and statistics of the grade of pesticide damage Grade 2 ([3]; isoxaflutole 280 g ai/ha (4×)): 0; Classification and statistics of the grade of pesticide damage Grade 3 ([3]; isoxaflutole 280 g ai/ha (4×)): 0; Scores ([3]; isoxaflutole 280 g ai/ha (4×)): 0
